According to publication PMC7442826 (2020):

B5: EHBP1 bMERB domain (bMERB_(1060-1212), full-length bMERB domain) (domain or fragment)
chain: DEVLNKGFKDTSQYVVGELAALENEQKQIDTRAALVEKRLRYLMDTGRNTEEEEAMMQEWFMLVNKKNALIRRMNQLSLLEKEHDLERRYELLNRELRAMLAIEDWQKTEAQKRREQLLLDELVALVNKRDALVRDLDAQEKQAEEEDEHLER

Key:
[1] = molecular target: B5; test: ITC
[2] = molecular target: EHBP1 bMERB domain L1156S (human, UniProt Q8NDI1-1 1060-1212, L1156S); test: ITC; GppNHp
[3] = molecular target: EHBP1 bMERB domain N1187A (human, UniProt Q8NDI1-1 1060-1212, N1187A); test: ITC; GppNHp
[4] = molecular target: EHBP1 bMERB domain L1182S (human, UniProt Q8NDI1-1 1060-1212, L1182S); test: ITC; GppNHp
EHBP1 bMERB domain L1182S, sequence (Q8NDI1 1060-1212 L1182S): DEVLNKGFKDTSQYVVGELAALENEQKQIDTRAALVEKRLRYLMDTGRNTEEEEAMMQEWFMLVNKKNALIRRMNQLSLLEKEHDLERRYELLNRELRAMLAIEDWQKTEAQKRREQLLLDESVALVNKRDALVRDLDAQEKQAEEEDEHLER

[5] = molecular target: EHBP1 bMERB domain L1179S (human, UniProt Q8NDI1-1 1060-1212, L1179S); test: ITC; GppNHp
EHBP1 bMERB domain L1179S, sequence (Q8NDI1 1060-1212 L1179S): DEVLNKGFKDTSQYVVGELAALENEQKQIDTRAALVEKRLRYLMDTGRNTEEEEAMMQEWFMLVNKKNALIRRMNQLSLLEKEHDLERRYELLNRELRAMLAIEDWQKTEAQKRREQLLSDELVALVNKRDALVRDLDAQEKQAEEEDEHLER

[6] = molecular target: EHBP1 bMERB domain R1189A (human, UniProt Q8NDI1-1 1060-1212, R1189A); test: ITC; GppNHp
EHBP1 bMERB domain R1189A, sequence (Q8NDI1 1060-1212 R1189A): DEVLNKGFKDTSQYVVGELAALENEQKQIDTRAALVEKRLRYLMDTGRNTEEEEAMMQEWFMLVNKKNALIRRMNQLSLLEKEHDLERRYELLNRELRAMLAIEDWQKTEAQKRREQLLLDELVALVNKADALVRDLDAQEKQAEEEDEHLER

[7] = molecular target: EHBP1 bMERB domain Q1176A (human, UniProt Q8NDI1-1 1060-1212, Q1176A); test: ITC; GppNHp
EHBP1 bMERB domain Q1176A, sequence (Q8NDI1 1060-1212 Q1176A): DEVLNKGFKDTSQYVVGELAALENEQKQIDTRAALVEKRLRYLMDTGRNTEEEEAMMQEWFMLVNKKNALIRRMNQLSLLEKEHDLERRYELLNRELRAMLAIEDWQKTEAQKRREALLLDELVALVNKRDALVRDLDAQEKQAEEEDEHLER

[8] = molecular target: B5; test: displacement by GppNHp Rab8a
[9] = molecular target: EHBP1 full-length bMERB domain M1103A (human, UniProt Q8NDI1-1 1060-1212, M1103 to alanine); test: ITC
EHBP1 full-length bMERB domain M1103A, sequence (Q8NDI1 1060-1212 M1103A): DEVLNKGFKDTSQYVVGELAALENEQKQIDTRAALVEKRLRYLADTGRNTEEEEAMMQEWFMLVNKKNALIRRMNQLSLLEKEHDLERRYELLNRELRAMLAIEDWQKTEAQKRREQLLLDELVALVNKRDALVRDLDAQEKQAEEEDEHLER

[10] = molecular target: EHBP1 full-length bMERB domain M1116A (human, UniProt Q8NDI1-1 1060-1212, M1116A); test: ITC
EHBP1 full-length bMERB domain M1116A, sequence (Q8NDI1 1060-1212 M1116A): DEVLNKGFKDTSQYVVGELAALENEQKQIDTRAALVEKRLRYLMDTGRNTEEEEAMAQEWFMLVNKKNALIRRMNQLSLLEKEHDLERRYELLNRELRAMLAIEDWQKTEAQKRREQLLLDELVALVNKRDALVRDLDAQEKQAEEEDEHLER

EHBP1 CH domain Q542A = EHBP1 CH domain Q542A (human, UniProt Q8NDI1-1 440-550, Q542 to alanine); test: ITC
EHBP1 CH domain Q542A, sequence (Q8NDI1 1060-1212, stated change not applied): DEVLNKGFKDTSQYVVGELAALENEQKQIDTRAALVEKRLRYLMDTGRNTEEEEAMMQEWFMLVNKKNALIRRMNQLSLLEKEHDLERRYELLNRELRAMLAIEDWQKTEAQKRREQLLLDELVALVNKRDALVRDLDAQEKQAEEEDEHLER

EHBP1 CH domain M537A = EHBP1 CH domain M537A (human, UniProt Q8NDI1-1 440-550, M537 to alanine); test: ITC
EHBP1 CH domain M537A, sequence (Q8NDI1 1060-1212, stated change not applied): as above

EHBP1 CH domain D532A = EHBP1 CH domain D532A (human, UniProt Q8NDI1-1 440-550, D532 to alanine); test: ITC
EHBP1 CH domain D532A, sequence (Q8NDI1 1060-1212, stated change not applied): as above

EHBP1 CH domain Y541A = EHBP1 CH domain Y541A (human, UniProt Q8NDI1-1 440-550, Y541 to alanine); test: ITC
EHBP1 CH domain Y541A, sequence (Q8NDI1 1060-1212, stated change not applied): as above

[11] = molecular target: Rab8a_(1-176_T72E) (phosphomimetic Rab8a) (human, UniProt P61006 1-176, T72E); test: ITC

EHBP1 bMERB domain L1156S, sequence (Q8NDI1 1060-1212 L1156S): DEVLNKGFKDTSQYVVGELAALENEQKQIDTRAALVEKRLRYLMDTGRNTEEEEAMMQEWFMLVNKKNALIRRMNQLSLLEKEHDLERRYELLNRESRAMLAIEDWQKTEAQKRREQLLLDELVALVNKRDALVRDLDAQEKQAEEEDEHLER
EHBP1 bMERB domain N1187A, sequence (Q8NDI1 1060-1212 N1187A): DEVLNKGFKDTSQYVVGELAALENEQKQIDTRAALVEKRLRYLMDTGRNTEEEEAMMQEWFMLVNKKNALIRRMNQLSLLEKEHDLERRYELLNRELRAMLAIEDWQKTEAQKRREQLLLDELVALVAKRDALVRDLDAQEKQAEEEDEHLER

B1: Rab10_(1-175) (human Rab10 G-domain) (domain or fragment)
chain: MAKKTYDLLFKLLLIGDSGVGKTCVLFRFSDDAFNTTFISTIGIDFKIKTVELQGKKIKLQIWDTAGQERFHTITTSYYRGAMGIMLVYDITNGKSFENISKWLRNIDEHANEDVERMLLGNKCDMDDKRVVPKGKGEQIAREHGIRFFETSAKANINIEKAFLTLAEDILRKTP
[1]
  Kd: 0.32 µM

B2: Rab8a_(1-176) (human Rab8a G-domain) (domain or fragment)
chain: MAKTYDYLFKLLLIGDSGVGKTCVLFRFSEDAFNSTFISTIGIDFKIRTIELDGKRIKLQIWDTAGQERFRTITTAYYRGAMGIMLVYDITNEKSFDNIRNWIRNIEEHASADVEKMILGNKCDVNDKRQVSKERGEKLALDYGIKFMETSAKANINVENAFFTLARDIKAKMDKK
[2]
  Kd: 14.3 µM
[3]
  Kd: 1.5 µM
[4]
  Kd: 3.04 µM
[5]
  Kd: 3.23 µM
[6]
  Kd: 6 µM
[7]
  Kd: 0.33 µM

B3: Cy3 labeled EHBP1 CH domain (domain or fragment)
chain: GRKPNASQSLLVWCKEVTKNYRGVKITNFTTSWRNGLSFCAILHHFRPDLIDYKSLNPQDIKENNKKAYDGFASIGISRLLEPSDMVLLAIPDKLTVMTYLYQIRAHFSGQ
modifications: Cy3 on the N-terminus
[8]
  koff: 165 s⁻¹

B4: EHBP1 CH (calponin homology) domain (domain or fragment)
chain: GRKPNASQSLLVWCKEVTKNYRGVKITNFTTSWRNGLSFCAILHHFRPDLIDYKSLNPQDIKENNKKAYDGFASIGISRLLEPSDMVLLAIPDKLTVMTYLYQIRAHFSGQ
[9]
  Kd: 34.7 µM
[10]
  Kd: 15.8 µM

## B5
EHBP1 CH domain Q542A
  Kd: 3.85 µM
EHBP1 CH domain M537A
  Kd: 7.6 µM
EHBP1 CH domain D532A
  Kd: 43.5 µM
EHBP1 CH domain Y541A
  Kd: 5.65 µM
[11]
  Kd: 0.4 µM
